Measurements taken from PMC3907550.

Legend:
[1] = molecular target: HA2His6-tagged Arabidopsis ADK (Arabidopsis) (UniProt Q9LZG0)
[2] = molecular target: HA2His6-tagged Arabidopsis ADK (Arabidopsis) (UniProt Q9LZG0); remark: listed apart in the source

UniProt Q9LZG0, sequence (Q9LZG0 whole entry): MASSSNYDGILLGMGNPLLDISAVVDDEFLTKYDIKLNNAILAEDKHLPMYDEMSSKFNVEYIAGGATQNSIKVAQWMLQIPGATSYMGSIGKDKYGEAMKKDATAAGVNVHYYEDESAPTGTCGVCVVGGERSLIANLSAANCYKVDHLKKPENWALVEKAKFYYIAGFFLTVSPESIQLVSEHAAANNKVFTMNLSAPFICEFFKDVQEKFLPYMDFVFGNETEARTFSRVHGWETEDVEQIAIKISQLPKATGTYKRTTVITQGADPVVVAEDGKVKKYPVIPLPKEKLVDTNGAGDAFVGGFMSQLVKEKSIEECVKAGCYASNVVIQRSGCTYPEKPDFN

ADK activity (labeled 5′-AMP from adenosine and γ32P-ATP) with a two-fold molar excess of HA2His6-SnRK1-KD, against ADK+GFP [1]: 6 fold
ADK activity against increasing HA2His6-SnRK1-KD:ADK molar ratio, up to 4∶1 [2]: 90 % of maximum
Substance: HA2His6-tagged SnRK1 kinase domain (SnRK1-KD; amino acids 1-343) (from UniProt P92958 1-343) (domain or fragment)
